B1: SOAT1 (parent)
chain: VYYIFERLCAPLFRNIKQEPFSAR
B2: MATN2 (parent)
chain: VNVPGSFVCQCYSGYALAEDGKRC
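Note: lentivirally expressed fusions sorted by FACS into six bins by GFP to DsRed ratio, PSI derived from sequencing read proportions per bin multiplied by bin number.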

Variants of B1 are the subject of the first series. Kind of series: protein stability index of a GFP-peptide fusion (GPS, HEK-293T) (PSI 1-6); higher = more stable. As to conditions: c terminus: a fixed tail appended.
As for VYYIFERLCAPLFRNIKQEPFSAH [R24H], the protein stability index was 2.48.

Consider VYYIFERLCAPLFRNIKQEPFSAM [R24M], for which the protein stability index was 2.64.

For VYYIFERLCAPLFRNIKQEPFSAY [R24Y], the protein stability index was found to be 1.88. Same read-out and setting: the same measure for VYYIFERLCAPLFRNIKQEPFSAL [R24L]: 2.79; for VYYIFERLCAPLFRNIKQEPFSAV [R24V]: 2.57. The same measure, in the same setting: the same measure for VYYIFERLCAPLFRNIKQEPFSAD [R24D]: 3.13; for VYYIFERLCAPLFRNIKQEPFSAI [R24I]: 2.73; for VYYIFERLCAPLFRNIKQEPFSAA [R24A]: 2.27. Still for that read-out and setting: for VYYIFERLCAPLFRNIKQEPFSAE [R24E] the value was 3.4; for VYYIFERLCAPLFRNIKQEPFSAK [R24K], 2.42; for VYYIFERLCAPLFRNIKQEPFSAN [R24N], 4.22.

Consider VYYIFERLCAPLFRNIKQEPFWAR [S22W], for which the protein stability index came out at 2.91. The same measure, in the same setting: for VYYIFERLCAPLFRNIKQEPFYAR [S22Y] the value was 3.56.

Turning to VYYIFERLCAPLFRNIKQEPFTAR [S22T], the protein stability index amounted to 2.36. As to VYYIFERLCAPLFRNIKQEPFQAR [S22Q], the protein stability index was 1.46. On the same count and under the same terms, for VYYIFERLCAPLFRNIKQEPFSQR [A23Q] the value was 2.02.

On to VYYIFERLCAPLFRNIKQEPFSPR [A23P], for which the protein stability index was determined as 2.21. For VYYIFERLCAPLFRNIKQEPFSWR [A23W], the protein stability index is 3.89. In the case of VYYIFERLCAPLFRNIKQEPFSIR [A23I], the protein stability index came out at 2.1. On the same count and under the same terms, the same measure for VYYIFERLCAPLFRNIKQEPFSLR [A23L]: 2.55. For the variant VYYIFERLCAPLFRNIKQEPFSSR [A23S], the protein stability index amounted to 2.8. With VYYIFERLCAPLFRNIKQEPFSKR [A23K], the protein stability index came out at 2.41. On to VYYIFERLCAPLFRNIKQEPFSNR [A23N], for which the protein stability index turned out to be 2.53. For VYYIFERLCAPLFRNIKQEPFSYR [A23Y], the protein stability index was determined as 3.86. On the same count and under the same terms, the same measure for VYYIFERLCAPLFRNIKQEPFSTR [A23T]: 1.42; for VYYIFERLCAPLFRNIKQEPFSRR [A23R]: 1.9; for VYYIFERLCAPLFRNIKQEPFSCR [A23C]: 1.65.

The variants in another series derive from B2. Described as above. As to conditions: c terminus: a fixed tail appended.
Turning to VNVPSSFVCQCYSGYALAEDGKRC [G5S], the protein stability index was determined as 1.91. As for VNVPPSFVCQCYSGYALAEDGKRC [G5P], the protein stability index came out at 2.31.

Turning to VNVPRSFVCQCYSGYALAEDGKRC [G5R], the protein stability index is 2.17. The same measure, in the same setting: for VNVPHSFVCQCYSGYALAEDGKRC [G5H] the value was 2.6; for VNVPNSFVCQCYSGYALAEDGKRC [G5N], 1.75.

In the case of VNVPLSFVCQCYSGYALAEDGKRC [G5L], the protein stability index worked out at 1.06.

With VNVPYSFVCQCYSGYALAEDGKRC [G5Y], the protein stability index was 1.2.

On to VNVPESFVCQCYSGYALAEDGKRC [G5E], for which the protein stability index amounted to 1.79.

With VNVPISFVCQCYSGYALAEDGKRC [G5I], the protein stability index worked out at 1.45. Same read-out and setting: the same measure for VNVPQSFVCQCYSGYALAEDGKRC [G5Q]: 2.14. The same measure, in the same setting: the same measure for VNVPASFVCQCYSGYALAEDGKRC [G5A]: 1.67; for VNVPCSFVCQCYSGYALAEDGKRC [G5C]: 2.68; for VNVPTSFVCQCYSGYALAEDGKRC [G5T]: 1.87.

Turning to VNVPMSFVCQCYSGYALAEDGKRC [G5M], the protein stability index is 1.47. VNVPWSFVCQCYSGYALAEDGKRC [G5W]: the protein stability index worked out at 4.67.

On to VNVPDSFVCQCYSGYALAEDGKRC [G5D], for which the protein stability index was 2.06. On to VNVPVSFVCQCYSGYALAEDGKRC [G5V], for which the protein stability index came to 1.17. Consider VNVPGSFVTQCYSGYALAEDGKRC [C9T], for which the protein stability index worked out at 2.52. Take VNVPGSFVKQCYSGYALAEDGKRC [C9K]: the protein stability index is 3.08.

For the variant VNVPGSFVDQCYSGYALAEDGKRC [C9D], the protein stability index stood at 4.36.

As for VNVPGSFVFQCYSGYALAEDGKRC [C9F], the protein stability index came out at 2.54. Same read-out and setting: for VNVPGSFVRQCYSGYALAEDGKRC [C9R] the value was 2.69. On the same count and under the same terms, the same measure for VNVPGSFVNQCYSGYALAEDGKRC [C9N]: 3.12; for VNVPGSFVEQCYSGYALAEDGKRC [C9E]: 3.33.

Regarding VNVPGSFVSQCYSGYALAEDGKRC [C9S], the protein stability index was determined as 3.15. Still for that read-out and setting: the same measure for VNVPGSFVWQCYSGYALAEDGKRC [C9W]: 2.21. On the same count and under the same terms, the same measure for VNVPGSFVQQCYSGYALAEDGKRC [C9Q]: 2.97; for VNVPGSFVHQCYSGYALAEDGKRC [C9H]: 2.95. Take VNVPGSFVPQCYSGYALAEDGKRC [C9P]: the protein stability index turned out to be 3.06. With VNVPGSFVMQCYSGYALAEDGKRC [C9M], the protein stability index was determined as 2.28. Consider VNVPGSFVAQCYSGYALAEDGKRC [C9A], for which the protein stability index turned out to be 1.81.

Consider VNVPGSFVGQCYSGYALAEDGKRC [C9G], for which the protein stability index turned out to be 2.8. Same read-out and setting: the same measure for VNVPGSFVLQCYSGYALAEDGKRC [C9L]: 2.05. For the variant VNVPGSFVYQCYSGYALAEDGKRC [C9Y], the protein stability index turned out to be 2.2.

VNVPGSFVIQCYSGYALAEDGKRC [C9I]: the protein stability index was 1.5. Take VNVPGSFVVQCYSGYALAEDGKRC [C9V]: the protein stability index turned out to be 2.32. For VNVPGVFVCQCYSGYALAEDGKRC [S6V], the protein stability index turned out to be 1.84.

VNVPGWFVCQCYSGYALAEDGKRC [S6W]: the protein stability index amounted to 2.04. Still for that read-out and setting: the same measure for VNVPGDFVCQCYSGYALAEDGKRC [S6D]: 2.97; for VNVPGCFVCQCYSGYALAEDGKRC [S6C]: 2.05.

Turning to VNVPGNFVCQCYSGYALAEDGKRC [S6N], the protein stability index came out at 1.43. Same read-out and setting: for VNVPGEFVCQCYSGYALAEDGKRC [S6E] the value was 2.67.

On to VNVPGYFVCQCYSGYALAEDGKRC [S6Y], for which the protein stability index came out at 1.87. In the case of VNVPGQFVCQCYSGYALAEDGKRC [S6Q], the protein stability index was 1.81. Turning to VNVPGRFVCQCYSGYALAEDGKRC [S6R], the protein stability index amounted to 3.39. On the same count and under the same terms, the same measure for VNVPGHFVCQCYSGYALAEDGKRC [S6H]: 2.27.

Take VNVPGGFVCQCYSGYALAEDGKRC [S6G]: the protein stability index came out at 1.47. VNVPGFFVCQCYSGYALAEDGKRC [S6F]: the protein stability index came out at 3.53. On to VNVPGTFVCQCYSGYALAEDGKRC [S6T], for which the protein stability index is 2.12. Still for that read-out and setting: the same measure for VNVPGKFVCQCYSGYALAEDGKRC [S6K]: 1.89; for VNVEGSFVCQCYSGYALAEDGKRC [P4E]: 2.46. Turning to VNVAGSFVCQCYSGYALAEDGKRC [P4A], the protein stability index amounted to 1.87. Regarding VNVDGSFVCQCYSGYALAEDGKRC [P4D], the protein stability index is 1.91. In the case of VNVHGSFVCQCYSGYALAEDGKRC [P4H], the protein stability index amounted to 1.47. Take VNVTGSFVCQCYSGYALAEDGKRC [P4T]: the protein stability index was 1. Same read-out and setting: for VNVKGSFVCQCYSGYALAEDGKRC [P4K] the value was 1.92; for VNVVGSFVCQCYSGYALAEDGKRC [P4V], 2.28; for VNVMGSFVCQCYSGYALAEDGKRC [P4M], 2.1. Still for that read-out and setting: the same measure for VNVSGSFVCQCYSGYALAEDGKRC [P4S]: 1.34; for VNVRGSFVCQCYSGYALAEDGKRC [P4R]: 1.33. The same measure, in the same setting: the same measure for VNVGGSFVCQCYSGYALAEDGKRC [P4G]: 1.86; for VNVIGSFVCQCYSGYALAEDGKRC [P4I]: 1.04; for VNVFGSFVCQCYSGYALAEDGKRC [P4F]: 1.36.

Regarding VNVNGSFVCQCYSGYALAEDGKRC [P4N], the protein stability index is 1.94. The same measure, in the same setting: the same measure for VNVQGSFVCQCYSGYALAEDGKRC [P4Q]: 2.97.

As for VNVLGSFVCQCYSGYALAEDGKRC [P4L], the protein stability index stood at 1.99.

For VNVCGSFVCQCYSGYALAEDGKRC [P4C], the protein stability index is 2.07.

Source of the values: the supplement of paper PMC10567573.
